Biological target: T1, GFP-SSH1 (human, UniProt Q8WYL5 1-1049)
T1 construct: Slingshot homolog 1 (SSH1); also called EGFP-SSH1; WT SSH1; source: HeLa, transiently transfected, in fixed cells
T1 sequence (looked up): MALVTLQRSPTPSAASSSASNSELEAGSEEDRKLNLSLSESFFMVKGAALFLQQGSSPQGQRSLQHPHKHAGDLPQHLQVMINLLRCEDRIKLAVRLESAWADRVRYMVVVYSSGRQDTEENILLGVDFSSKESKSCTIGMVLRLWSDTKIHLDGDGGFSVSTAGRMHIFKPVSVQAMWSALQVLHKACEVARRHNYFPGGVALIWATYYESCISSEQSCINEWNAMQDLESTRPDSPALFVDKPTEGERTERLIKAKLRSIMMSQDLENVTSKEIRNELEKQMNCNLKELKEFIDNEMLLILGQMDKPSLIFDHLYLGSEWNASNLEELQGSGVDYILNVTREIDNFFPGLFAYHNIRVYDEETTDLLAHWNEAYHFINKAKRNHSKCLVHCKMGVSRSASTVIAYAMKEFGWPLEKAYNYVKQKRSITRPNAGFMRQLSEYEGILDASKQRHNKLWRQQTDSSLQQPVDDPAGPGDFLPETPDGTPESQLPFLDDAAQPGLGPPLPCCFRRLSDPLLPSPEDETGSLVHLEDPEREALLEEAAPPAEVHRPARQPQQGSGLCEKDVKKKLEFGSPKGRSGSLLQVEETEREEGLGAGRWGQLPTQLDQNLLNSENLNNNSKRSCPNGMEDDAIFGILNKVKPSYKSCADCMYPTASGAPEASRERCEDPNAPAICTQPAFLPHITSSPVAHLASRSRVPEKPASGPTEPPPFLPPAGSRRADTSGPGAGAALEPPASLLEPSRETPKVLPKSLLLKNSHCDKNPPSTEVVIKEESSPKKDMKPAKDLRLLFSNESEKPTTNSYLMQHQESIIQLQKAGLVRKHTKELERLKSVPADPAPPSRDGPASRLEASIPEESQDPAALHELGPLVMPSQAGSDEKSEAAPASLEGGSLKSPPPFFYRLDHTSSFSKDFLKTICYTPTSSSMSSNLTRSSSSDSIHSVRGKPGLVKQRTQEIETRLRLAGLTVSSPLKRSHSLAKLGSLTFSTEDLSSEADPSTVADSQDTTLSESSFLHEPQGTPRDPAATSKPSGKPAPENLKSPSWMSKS
Assay: proximity ligation; in situ PLA (Duolink) in transiently transfected HeLa cells, fixed 24 h after transfection; rabbit GFP-specific and mouse Flag-specific primary antibodies; spot area per cell quantified by automated microscopy
Conditions: partners not purified

B1: Flag-NOD1 (receptor, human, UniProt Q9Y239 1-953, looked up)
chain: MEEQGHSEMEIIPSESHPHIQLLKSNRELLVTHIRNTQCLVDNLLKNDYFSAEDAEIVCACPTQPDKVRKILDLVQSKGEEVSEFFLYLLQQLADAYVDLRPWLLEIGFSPSLLTQSKVVVNTDPVSRYTQQLRHHLGRDSKFVLCYAQKEELLLEEIYMDTIMELVGFSNESLGSLNSLACLLDHTTGILNEQGETIFILGDAGVGKSMLLQRLQSLWATGRLDAGVKFFFHFRCRMFSCFKESDRLCLQDLLFKHYCYPERDPEEVFAFLLRFPHVALFTFDGLDELHSDLDLSRVPDSSCPWEPAHPLVLLANLLSGKLLKGASKLLTARTGIEVPRQFLRKKVLLRGFSPSHLRAYARRMFPERALQDRLLSQLEANPNLCSLCSVPLFCWIIFRCFQHFRAAFEGSPQLPDCTMTLTDVFLLVTEVHLNRMQPSSLVQRNTRSPVETLHAGRDTLCSLGQVAHRGMEKSLFVFTQEEVQASGLQERDMQLGFLRALPELGPGGDQQSYEFFHLTLQAFFTAFFLVLDDRVGTQELLRFFQEWMPPAGAATTSCYPPFLPFQCLQGSGPAREDLFKNKDHFQFTNLFLCGLLSKAKQKLLRHLVPAAALRRKRKALWAHLFSSLRGYLKSLPRVQVESFNQVQAMPTFIWMLRCIYETQSQKVGQLAARGICANYLKLTYCNACSADCSALSFVLHHFPKRLALDLDNNNLNDYGVRELQPCFSRLTVLRLSVNQITDGGVKVLSEELTKYKIVTYLGLYNNQITDVGARYVTKILDECKGLTHLKLGKNKITSEGGKYLALAVKNSKSISEVGMWGNQVGDEGAKAFAEALRNHPSLTTLSLASNGISTEGGKSLARALQQNTSLEILWLTQNELNDEVAESLAEMLKVNQTLKHLWLIQNQITAKGTAQLADALQSNTGITEICLNGNLIKPEEAKVYEDEKRIICF
notes: NOD1; the Flag-tagged plasmid is not described in the methods; source: HeLa, transiently transfected, in fixed cells
- area covered by PLA spots, against neighbouring GFP-negative cells: ~4 fold

— article PMC4154870, “The Cofilin Phosphatase Slingshot Homolog 1 (SSH1) Links NOD1 Signaling to Actin Remodeling” (PLoS Pathogens, 2014)
